According to the supplement of paper PMC10126150:
± gives the standard deviation of the averaged measurements.

Tested on: ATP
Assay: switch fluorescence ratio, 500 uM ATP over buffer (Cy3 cluster intensity, sum of 5 cycles each) (fold (ratio)); higher = stronger signal-on switching upon ATP binding; sequences stand for … in TCGTCGGCAGCGTCAGATGTGTATAAGAGACAGTTTTTTTTTTTTTTTTTTTTTTTTT…TC
Conditions: aptamer strand: ATP DNA aptamer (quencher-CACCTGGGGGAGTATTGCGGAGGAAGG + anchor), 100 nM annealed; ATP concentration: 500 uM
Procedure, shortened: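 Exposure to 500 uM ATP lasted 15 min at 22 °C before imaging, and a selection-buffer image was taken beforehand, for Cy3-labelled switching-strand clusters on a modified Illumina MiSeq flow-cell annealed to 100 nM quencher-labelled ATP aptamer. Five buffer/ATP cycles were run with NaOH stripping and re-annealing between them. The fluorescence ratio per cluster is summed target-cycle over summed buffer-cycle Cy3 intensity, averaged per switch-domain sequence. Clusters outside 100-1000 RFU were excluded.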

## GGGTTGGAAT
  switch fluorescence ratio: 0.9878 ± 0.003

## GGGTTGGGG
  switch fluorescence ratio: 0.995 ± 0.048

## GGGTTGGGGA
  switch fluorescence ratio: 1.01 ± 0.025

## GGGTTGTCTG
  switch fluorescence ratio: 0.961 ± 0.063

## GGGTTGTTGC
  switch fluorescence ratio: 1 ± 0.037

## GGGTTTAGAC
  switch fluorescence ratio: 0.982 ± 0.032

## GGGTTTATCT
  switch fluorescence ratio: 0.986 ± 0.039

## GGGTTTCGAA
  switch fluorescence ratio: 0.9702 ± 0.0018

## GGGTTTCGAG
  switch fluorescence ratio: 1.04 ± 0.016

## GGGTTTCGAT
  switch fluorescence ratio: 0.984 ± 0.024

## GGGTTTCGTG
  switch fluorescence ratio: 0.993 ± 0.015

## GGGTTTCTCT
  switch fluorescence ratio: 0.994 ± 0.032

## GGGTTTGAGA
  switch fluorescence ratio: 1.005 ± 0.0042

## GGGTTTGGGG
  switch fluorescence ratio: 0.988 ± 0.022

## GGGTTTGTA
  switch fluorescence ratio: 0.965 ± 0.04

## GGGTTTGTAC
  switch fluorescence ratio: 1.13 ± 0.12

## GGGTTTGTGT
  switch fluorescence ratio: 1.01 ± 0.019

## GGGTTTTATT
  switch fluorescence ratio: 0.981 ± 0.036

## GGGTTTTCGA
  switch fluorescence ratio: 1.014 ± 0.0011

## GGGTTTTCGT
  switch fluorescence ratio: 0.9538 ± 0.0032

## GGGTTTTTAC
  switch fluorescence ratio: 1.03 ± 0.033

## GGGTTTTTGG
  switch fluorescence ratio: 0.997 ± 0.032

## GGGTTTTTTT
  switch fluorescence ratio: 0.998 ± 0.044

## GGTAAAAGTC
  switch fluorescence ratio: 1.01 ± 0.012

## GGTAAAGCAT
  switch fluorescence ratio: 1.027 ± 0.006

## GGTAACGTTC
  switch fluorescence ratio: 0.989 ± 0.015

## GGTAAGGGGA
  switch fluorescence ratio: 0.991 ± 0.033

## GGTAAGTGTT
  switch fluorescence ratio: 1.003 ± 0.0044

## GGTAATAGAG
  switch fluorescence ratio: 0.987 ± 0.05

## GGTAATGGCA
  switch fluorescence ratio: 1.01 ± 0.039

## GGTAATTTAG
  switch fluorescence ratio: 1.02 ± 0.015

## GGTAATTTGA
  switch fluorescence ratio: 0.989 ± 0.024

## GGTAATTTTC
  switch fluorescence ratio: 1.11 ± 0.18

## GGTACAAGG
  switch fluorescence ratio: 1.01 ± 0.029

## GGTACAGGAC
  switch fluorescence ratio: 1.06 ± 0.047

## GGTACAGGGC
  switch fluorescence ratio: 1.065 ± 0.0073

## GGTACCACTT
  switch fluorescence ratio: 0.992 ± 0.039

## GGTACGGGCC
  switch fluorescence ratio: 1.011 ± 0.01

## GGTACGTCGG
  switch fluorescence ratio: 0.979 ± 0.048

## GGTACTGGAC
  switch fluorescence ratio: 1.087 ± 0.0021

## GGTAGACTTT
  switch fluorescence ratio: 0.967 ± 0.017

## GGTAGGCGAA
  switch fluorescence ratio: 0.9775 ± 0.0013

## GGTAGGTCGT
  switch fluorescence ratio: 1.02 ± 0.074

## GGTAGGTTGC
  switch fluorescence ratio: 1.03 ± 0.013

## GGTAGTAGAT
  switch fluorescence ratio: 1.01 ± 0.0072

## GGTAGTAGGC
  switch fluorescence ratio: 1.014 ± 0.0019

## GGTAGTAGTG
  switch fluorescence ratio: 1.0054 ± 0.00082

## GGTAGTCGGG
  switch fluorescence ratio: 0.968 ± 0.014

## GGTAGTGCTG
  switch fluorescence ratio: 0.982 ± 0.042

## GGTAGTTGGT
  switch fluorescence ratio: 1.01 ± 0.011

## GGTAGTTTTC
  switch fluorescence ratio: 0.9916 ± 0.0039

## GGTATAATAC
  switch fluorescence ratio: 1.23 ± 0.041

## GGTATAATTG
  switch fluorescence ratio: 1.021 ± 0.0062

## GGTATATAAA
  switch fluorescence ratio: 1.003 ± 0.0029

## GGTATATGTT
  switch fluorescence ratio: 1.01 ± 0.015

## GGTATATTCC
  switch fluorescence ratio: 1.02 ± 0.024

## GGTATCGAGG
  switch fluorescence ratio: 1.01 ± 0.015

## GGTATGCTCT
  switch fluorescence ratio: 0.998 ± 0.065

## GGTATGGTCT
  switch fluorescence ratio: 1.02 ± 0.022

## GGTATGTTGG
  switch fluorescence ratio: 0.996 ± 0.011

## GGTATTAGGA
  switch fluorescence ratio: 0.9669 ± 0.0076

## GGTATTCCGT
  switch fluorescence ratio: 1.03 ± 0.045

## GGTATTCGAA
  switch fluorescence ratio: 1.054 ± 0.0022

## GGTATTGAGT
  switch fluorescence ratio: 0.992 ± 0.03

## GGTATTGCGT
  switch fluorescence ratio: 0.977 ± 0.042

## GGTATTGGGA
  switch fluorescence ratio: 0.989 ± 0.018

## GGTATTGGTT
  switch fluorescence ratio: 0.987 ± 0.048

## GGTATTTGGT
  switch fluorescence ratio: 0.988 ± 0.03

## GGTATTTTGG
  switch fluorescence ratio: 0.953 ± 0.035

## GGTCAAGGGG
  switch fluorescence ratio: 0.9826 ± 0.0088

## GGTCAGGTGA
  switch fluorescence ratio: 0.972 ± 0.073

## GGTCATGGCG
  switch fluorescence ratio: 1.02 ± 0.098

## GGTCATTGTT
  switch fluorescence ratio: 0.9635 ± 0.0031

## GGTCCGGAGC
  switch fluorescence ratio: 1.1577 ± 0.00066

## GGTCCGTCGA
  switch fluorescence ratio: 1.02 ± 0.064

## GGTCCTCGTG
  switch fluorescence ratio: 0.998 ± 0.027

## GGTCCTGGGC
  switch fluorescence ratio: 1.01 ± 0.013

## GGTCGCAGTC
  switch fluorescence ratio: 0.9649 ± 0.0016

## GGTCGCCGGG
  switch fluorescence ratio: 0.976 ± 0.081

## GGTCGGGGAG
  switch fluorescence ratio: 0.9987 ± 0.0028

## GGTCGGGGGA
  switch fluorescence ratio: 0.99 ± 0.061

## GGTCGGGTAC
  switch fluorescence ratio: 0.9676 ± 0.0094

## GGTCGGTATT
  switch fluorescence ratio: 1.08 ± 0.12

## GGTCGGTGCG
  switch fluorescence ratio: 0.9914 ± 0.0098

## GGTCGGTTGG
  switch fluorescence ratio: 0.97591 ± 0.00041

## GGTCGTGCGC
  switch fluorescence ratio: 0.996 ± 0.029

## GGTCTAGAGT
  switch fluorescence ratio: 1 ± 0.014

## GGTCTAGGCA
  switch fluorescence ratio: 0.987 ± 0.02

## GGTCTGCAGC
  switch fluorescence ratio: 1.003 ± 0.0062

## GGTCTGGGGG
  switch fluorescence ratio: 0.955 ± 0.012

## GGTCTGGGGT
  switch fluorescence ratio: 1.09 ± 0.21

## GGTCTTAACT
  switch fluorescence ratio: 0.967 ± 0.028

## GGTCTTCTTT
  switch fluorescence ratio: 0.994 ± 0.029

## GGTCTTTTTT
  switch fluorescence ratio: 1.02 ± 0.05

## GGTGAAGACC
  switch fluorescence ratio: 0.9598 ± 0.0086

## GGTGACAAAT
  switch fluorescence ratio: 0.9777 ± 0.003

## GGTGACCTTG
  switch fluorescence ratio: 0.9891 ± 0.0037

## GGTGACGCAC
  switch fluorescence ratio: 1.62 ± 0.057

## GGTGAGGGTA
  switch fluorescence ratio: 0.991 ± 0.012

## GGTGAGTCGG
  switch fluorescence ratio: 0.9925 ± 0.0029
